These are literature values, as cited in PMC5342629.

What is called pKd is −log10 of the Kd, conventionally taken in molar units.

The target in series [1] is Cdc4 (Saccharomyces cerevisiae) (UniProt P07834).
The target is the same in series [2]. This is another data set of the same source.
For series [3] the target is unchanged. The source holds these as a separate data set.

pKd: −log10 of the molar value. Like-named read-outs stand apart in the source and are kept apart here. Bounds are passed on as bounds.

UniProt P07834, sequence (P07834 whole entry): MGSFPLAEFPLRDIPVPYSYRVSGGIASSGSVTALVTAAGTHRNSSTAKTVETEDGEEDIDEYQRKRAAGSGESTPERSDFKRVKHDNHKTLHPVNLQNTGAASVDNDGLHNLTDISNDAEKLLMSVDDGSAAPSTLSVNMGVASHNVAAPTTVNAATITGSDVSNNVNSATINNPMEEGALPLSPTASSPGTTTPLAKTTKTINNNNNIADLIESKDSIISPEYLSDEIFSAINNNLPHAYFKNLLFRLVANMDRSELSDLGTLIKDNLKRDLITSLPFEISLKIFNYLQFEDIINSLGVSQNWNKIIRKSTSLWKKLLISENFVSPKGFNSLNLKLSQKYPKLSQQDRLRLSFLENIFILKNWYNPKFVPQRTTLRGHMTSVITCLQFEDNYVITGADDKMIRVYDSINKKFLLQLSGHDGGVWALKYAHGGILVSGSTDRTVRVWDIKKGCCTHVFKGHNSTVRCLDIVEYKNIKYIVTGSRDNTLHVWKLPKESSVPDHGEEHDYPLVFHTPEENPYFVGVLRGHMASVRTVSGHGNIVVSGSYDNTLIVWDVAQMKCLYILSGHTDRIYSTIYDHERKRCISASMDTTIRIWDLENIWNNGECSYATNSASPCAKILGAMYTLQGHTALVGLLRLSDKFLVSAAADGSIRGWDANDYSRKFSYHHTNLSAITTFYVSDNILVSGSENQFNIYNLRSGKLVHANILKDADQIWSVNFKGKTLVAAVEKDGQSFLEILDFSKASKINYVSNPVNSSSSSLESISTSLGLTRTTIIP

“Sic1 20-residue peptide (from UniProt P38634)”: in series [1], the pKd was 5.62.
Take Sic1 (from UniProt P38634): the results for the negative logarithm of the Kd (pKd) in series [2] and in series [3] were < 4.30 and 6.00, respectively.
